# B1: P. thracensis MukE (natural protein, Photorhabdus thracensis)
# chain: MSSTHIEQFMPVKLAQALANSLFPELDSQLRAGRHIGIDDLDNHAFLMDFQEQLEEFYARYNVELIRAPEGFFYLRPRSTTLIPRSVLSELDMMVGKILCYLYLSPERLANQGIFTSQELYEELISLADEGKLMKFVNQRSSGSDLDKQKLQEKVRTTLNRLRRLGMVYFLPNNNNKFTITEAVFRFGADVRSGDDPREIQLRMIRDGEAMPVEGSLSLDDSENDETPDNSAEGAGDEQP
# notes: MukE, KITE subunit of MukBEF, Photorhabdus thracensis; also called KITE protein MukE; source: E. coli BL21-Gold(DE3), co-expressed with MukB and MukF (pFB403) or with MukF (pFB486); co-purified with MukB
# How the values were obtained:
# Assay in all cases: cryo-EM structure; MukB^EQ2E4F2–AcpP2 and MukB^EQ2–AcpP2 at 10 μM each, 80-bp matS DNA and MatP2; buffer H30 with 1 mM ATP, 2 mM MgCl2, 0.05% β-octyl glucoside; MatP/DNA/ATP-bound and apo particles from the same sample
# [1] = target: T1, P. thracensis MukB(E1407Q) (Photorhabdus thracensis, UniProt A0A0F7LRY2 1-1482, E1407Q); settings: both partners purified
# T1 construct: MukB, SMC subunit of MukBEF, Photorhabdus thracensis, with E1407Q (slows ATP hydrolysis); Two copies in each MukBEF monomer (kappa-MukB and nu-MukB); also called MukB^EQ; kappa-MukB; source: E. coli BL21-Gold(DE3), pFB485, produced at 22°C; purified alone or with MukEF after mixing of cell pellets (Ni-NTA, hSENP1 elution, Q, Superose 6); not shown: His6-SUMO, N-terminal, cleaved
# P. thracensis MukE = target: B1; settings: both partners purified
# [2] = target: the molecule itself
Binder,binding result [1],binding result (P. thracensis MukE),binding result [2]
"P. thracensis MatP (natural protein, Photorhabdus thracensis, cloned without tag; the C-terminal tetramerization tail is not visible; also called MatP2; source: E. coli BL21-Gold(DE3), pFB469, purified (HisTrap, Q flowthrough, SP)) MKYQQLENLECGWKWAYLIRKHQEGEPITKYIENSAAHAAVDKLIKLESEPVRVLEWIEQHMNPDLFNRMKQTIRARRKRHFNAEHQHTRKKSIDLDFPVWHRLSALSQRRGNTLSETIVQLIEDAERKEKYANQMSSLKHDLEAILGKNE",binds,binds,binds
B1,–,–,binds

# Reference: publication PMC8669397, “Cryo-EM structure of MukBEF reveals DNA loop entrapment at chromosomal unloading sites” (Molecular Cell, 2021)
